Reference: patent publication EP4799607A2

Molecular target: human VEGF165 (human) (UniProt P15692)
Assay: population PK model estimate, Michaelis-Menten binding of free aflibercept to VEGF in plasma (in vivo, model-derived)

Chain of aflibercept (chain): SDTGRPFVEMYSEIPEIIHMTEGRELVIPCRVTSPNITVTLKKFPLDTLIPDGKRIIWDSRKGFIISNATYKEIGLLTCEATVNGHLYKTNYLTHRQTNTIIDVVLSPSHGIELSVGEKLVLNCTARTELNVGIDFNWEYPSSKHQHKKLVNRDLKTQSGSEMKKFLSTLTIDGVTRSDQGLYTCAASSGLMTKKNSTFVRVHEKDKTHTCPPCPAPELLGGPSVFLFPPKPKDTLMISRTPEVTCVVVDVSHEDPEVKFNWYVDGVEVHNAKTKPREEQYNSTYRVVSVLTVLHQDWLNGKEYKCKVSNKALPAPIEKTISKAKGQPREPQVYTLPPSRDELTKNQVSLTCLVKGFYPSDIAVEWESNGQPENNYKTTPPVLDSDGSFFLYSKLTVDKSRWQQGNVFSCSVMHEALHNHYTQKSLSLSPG
Chain of UniProt P15692 (P15692 other isoform, or with tags, fused parts or gaps limits assumed): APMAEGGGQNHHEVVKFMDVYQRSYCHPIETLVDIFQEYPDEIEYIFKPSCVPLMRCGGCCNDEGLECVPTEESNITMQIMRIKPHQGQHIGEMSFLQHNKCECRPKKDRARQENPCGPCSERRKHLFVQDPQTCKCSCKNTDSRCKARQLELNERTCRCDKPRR

## aflibercept (Fc fusion)
  KM (concentration of free aflibercept at half of maximum binding capacity with VEGF): 0.411 mg/L
  VMK24 (maximum binding rate of free aflibercept to VEGF): 0.167 mg/day/L
